Our source for the Kd and koff values is PMC8382222 (2021).

In one test the target is VEGF-114 peptide (C-terminal amide (amidate version); cyclized). Kind of test: SPR. On the technique in general: In SPR one partner is held on a chip, and binding of the other changes the refractive index at the surface.
The next test deals with CRP-1 peptide (C-terminal amide (amidate version); cyclized). Kind of test: SPR.

B1: vascular endothelial growth factor (Recombinant Human VEGF165) (ligand)
chain: APMAEGGGQNHHEVVKFMDVYQRSYCHPIETLVDIFQEYPDEIEYIFKPSCVPLMRCGGCCNDEGLECVPTEESNITMQIMRIKPHQGQHIGEMSFLQHNKCECRPKKDRARQENPCGPCSERRKHLFVQDPQTCKCSCKNTDSRCKARQLELNERTCRCDKPRR
Turning to B1, in the test with VEGF-114 peptide, binding was characterised by a dissociation constant (Kd) of 10.3 µM and the koff stood at 0.75 s⁻¹.

B2: C-reactive protein (CRP) (natural protein)
chain: QTDMSRKAFVFPKESDTSYVSLKAPLTKPLKAFTVCLHFYTELSSTRGYSIFSYATKRQDNEILIFWSKDIGYSFTVGGSEILFEVPEVTVAPVHICTSWESASGIVEFWVDGKPRVRKSLKKGYTVGAEASIILGQEQDSFGGNFEGSQSLVGDIGNVNMWDFVLSPDEINTIYLGGPFSPNVLNWRALKYEVQGEVFTKPQLWP
In the test with CRP-1 peptide, B2 returned a Kd of 12 µM and a koff of 0.046 s⁻¹.

What is called Kd is a measure of binding affinity in units of concentration. As usually defined, the koff is the rate constant with which the complex falls apart. Low values mean slow dissociation, high ones fast dissociation.
